Tested on: patients with locally advanced or metastatic urothelial cancer
Assay: Same phase 2 study: safety (adverse events, NCI CTCAE v4.03)
Format: in vivo, human
Details: Cohort 2 (N = 89)
Text: Safety assessments will be based on the information collected through the safety surveillance process and will include the data from recorded adverse events (AEs) including SAEs, recording of concomitant medication, physical examination findings, cardiac monitoring, and laboratory tests.
The assessment of safety during the course of this study will consist of the surveillance and recording of AEs including SAEs, recording of concomitant medication, and measurements of protocol-specified physical examination findings, cardiac monitoring, and laboratory tests.
AE severity should be graded using the National Cancer Institute's Common Terminology Criteria for Adverse Events (NCI CTCAE), Version 4.03. These criteria are provided in the study manual.
An overview of AEs will provide a tabulation of the incidence of all AEs, treatment-emergent AEs, treatment-related AEs, Grade 3 and higher AEs. SAEs, treatment-related SAEs, deaths, and AEs leading to study treatment discontinuation. Adverse events will be defined as treatment emergent if they are newly occurring or worsened following study treatment.
AEs will be classified by system organ class and preferred tem using the Medical Dictionary for Regulatory Activities (MedDRA) and graded using NCI CTCAE, Version 4.03.
The incidence of AEs will be summarized by system organ class, preferred term, severity and relationship to study drug. In the event of multiple occurrences of the same AE in one patient, the AE will be counted once as the occurrence for the maximum grade. AEs leading to premature discontinuation of study drug will be summarized and listed in the same manner.

enfortumab vedotin: Nectin-4 directed ADC: fully human anti-nectin-4 IgG1 kappa antibody (AGS-22C3) conjugated to MMAE via protease-cleavable maleimidocaproyl valine-citrulline linker
AE of special interest, All Grade: Ocular Events, Blurred Vision: 9 (10.1) N (%) | AE of special interest, All Grade: Ocular Events, Corneal Disorders: 5 (5.6) N (%) | AE of special interest, All Grade: Ocular Events, Dry Eye Disorders: 27 (30.3) N (%) | AE of special interest, All Grade: Peripheral Neuropathy: 51 (58.4) N (%) | AE of special interest, All Grade: Rash: 59 (66.3) N (%) | AE of special interest, ≥Gr 3: Hyperglycemia: 8 (9) N (%) | AE of special interest, ≥Gr 3: IRR: 1 (1.1) N (%) | AE of special interest, ≥Gr 3: Peripheral Neuropathy: 7 (7.9) N (%) | AE of special interest, ≥Gr 3: Rash: 15 (16.9) N (%) | Any TEAEs: 89 (100.0) n (%) | Any TEAEs leading to death: 8 (9.0) n (%) | Any TEAEs leading to treatment discontinuation: 18 (20.2) n (%) | Any grade 3-5 TEAEs: 62 (69.7) n (%) | Any serious TEAEs: 35 (39.3) n (%) | SAEs (All): Acute kidney injury: 9 (10.1) n (%) | SAEs (All): Diarrhoea: 3 (3.4) n (%) | SAEs (All): Febrile neutropenia: 1 (1.1) n (%) | SAEs (All): Nausea: 2 (2.2) n (%) | SAEs (All): Overall: 35 (39.3) n (%) | SAEs (All): Pneumonia: 3 (3.4) n (%) | SAEs (All): Sepsis: 4 (4.5) n (%) | SAEs (All): Urinary tract infection: 3 (3.4) n (%) | SAEs (Related): Acute kidney injury: 3 (3.4) n (%) | SAEs (Related): Diarrhoea: 2 (2.2) n (%) | SAEs (Related): Febrile neutropenia: 1 (1.1) n (%) | SAEs (Related): Nausea: 1 (1.1) n (%) | SAEs (Related): Overall: 15 (16.9) n (%) | SAEs (Related): Pneumonia: 1 (1.1) n (%) | Treatment-related AE leading to discontinuation: Acute kidney injury: 2 (2.2) n (%) | Treatment-related AE leading to discontinuation: Dermatitis bullous: 1 (1.1) n (%) | Treatment-related AE leading to discontinuation: Lipase increased: 2 (2.2) n (%) | Treatment-related AE leading to discontinuation: Metabolic acidosis: 1 (1.1) n (%) | Treatment-related AE leading to discontinuation: Multiple organ dysfunction syndrome: 1 (1.1) n (%) | Treatment-related AE leading to discontinuation: Muscular weakness: 1 (1.1) n (%) | Treatment-related AE leading to discontinuation: Overall: 14 (15.7) n (%) | Treatment-related AE leading to discontinuation: Peripheral motor neuropathy: 1 (1.1) n (%) | Treatment-related AE leading to discontinuation: Peripheral sensory neuropathy: 4 (4.5) n (%) | Treatment-related AE leading to discontinuation: Pneumonitis: 1 (1.1) n (%) | Treatment-related TEAEs: 86 (96.6) n (%) | Treatment-related TEAEs (all grades): Alopecia: 45 (50.6) n (%) | Treatment-related TEAEs (all grades): Anaemia: 22 (24.7) n (%) | Treatment-related TEAEs (all grades): Aspartate aminotransferase increased: 7 (7.9) n (%) | Treatment-related TEAEs (all grades): Decreased appetite: 29 (32.6) n (%) | Treatment-related TEAEs (all grades): Diarrhoea: 20 (22.5) n (%) | Treatment-related TEAEs (all grades): Dry eye: 11 (12.4) n (%) | Treatment-related TEAEs (all grades): Dry skin: 16 (18.0) n (%) | Treatment-related TEAEs (all grades): Dysgeusia: 24 (27.0) n (%) | Treatment-related TEAEs (all grades): Fatigue: 30 (33.7) n (%) | Treatment-related TEAEs (all grades): Lacrimation increased: 9 (10.1) n (%) | Treatment-related TEAEs (all grades): Nausea: 20 (22.5) n (%) | Treatment-related TEAEs (all grades): Neutropenia: 11 (12.4) n (%) | Treatment-related TEAEs (all grades): Oedema peripheral: 10 (11.2) n (%) | Treatment-related TEAEs (all grades): Overall: 86 (96.6) n (%) | Treatment-related TEAEs (all grades): Peripheral sensory neuropathy: 42 (47.2) n (%) | Treatment-related TEAEs (all grades): Pruritus: 27 (30.3) n (%) | Treatment-related TEAEs (all grades): Rash maculo-papular: 27 (30.3) n (%) | Treatment-related TEAEs (all grades): Vomiting: 7 (7.9) n (%) | Treatment-related TEAEs (all grades): Weight decreased: 23 (25.8) n (%) | Treatment-related TEAEs leading to death: 3 (3.4) n (%) | Treatment-related TEAEs leading to treatment discontinuation: 14 (15.7) n (%) | Treatment-related TEAEs ≥Grade 3: Acute kidney injury: 4 (4.5) n (%) | Treatment-related TEAEs ≥Grade 3: Amylase increased: 3 (3.4) n (%) | Treatment-related TEAEs ≥Grade 3: Anaemia: 5 (5.6) n (%) | Treatment-related TEAEs ≥Grade 3: Aspartate aminotransferase increased: 2 (2.2) n (%) | Treatment-related TEAEs ≥Grade 3: Decreased appetite: 5 (5.6) n (%) | Treatment-related TEAEs ≥Grade 3: Diarrhoea: 5 (5.6) n (%) | Treatment-related TEAEs ≥Grade 3: Fatigue: 6 (6.7) n (%) | Treatment-related TEAEs ≥Grade 3: Febrile neutropenia: 1 (1.1) n (%) | Treatment-related TEAEs ≥Grade 3: Hyperglycaemia: 5 (5.6) n (%) | Treatment-related TEAEs ≥Grade 3: Hyponatraemia: 3 (3.4) n (%) | Treatment-related TEAEs ≥Grade 3: Lipase increased: 5 (5.6) n (%) | Treatment-related TEAEs ≥Grade 3: Neutropenia: 8 (9.0) n (%) | Treatment-related TEAEs ≥Grade 3: Neutrophil count decreased: 3 (3.4) n (%) | Treatment-related TEAEs ≥Grade 3: Overall: 49 (55.1) n (%) | Treatment-related TEAEs ≥Grade 3: Peripheral sensory neuropathy: 3 (3.4) n (%) | Treatment-related TEAEs ≥Grade 3: Pruritus: 3 (3.4) n (%) | Treatment-related TEAEs ≥Grade 3: Rash erythematous: 2 (2.2) n (%) | Treatment-related TEAEs ≥Grade 3: Rash maculo-papular: 7 (7.9) n (%) | Treatment-related grade 3-5 TEAEs: 49 (55.1) n (%) | Treatment-related serious TEAEs: 15 (16.9) n (%) | TRAEs, Any Grade: Alopecia (additional 3 months follow-up): 45 (51) n (%) | TRAEs, Any Grade: Anemia (additional 3 months follow-up): 22 (25) n (%) | TRAEs, Any Grade: Decreased appetite (additional 3 months follow-up): 29 (33) n (%) | TRAEs, Any Grade: Diarrhea (additional 3 months follow-up): 20 (22) n (%) | TRAEs, Any Grade: Dysgeusia (additional 3 months follow-up): 25 (28) n (%) | TRAEs, Any Grade: Fatigue (additional 3 months follow-up): 30 (34) n (%) | TRAEs, Any Grade: Hyperglycemia (additional 3 months follow-up): 8 (9) n (%) | TRAEs, Any Grade: Lipase increased (additional 3 months follow-up): 7 (8) n (%) | TRAEs, Any Grade: Nausea (additional 3 months follow-up): 20 (22) n (%)

— patent publication US20230364254A1, “METHODS FOR TREATING CANCERS WITH ANTIBODY DRUG CONJUGATES (ADC) THAT BIND TO 191P4D12 PROTEINS” (priority 2020, published 2023)
